# Test system: MS2 coat protein
# Experiment: apparent KD of MS2 coat protein; designed switch direction (-1 OFF switch, 1 ON switch): -1; higher = weaker reporter binding
# Procedure, shortened: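 The buffer was Tris-HCl pH 7.5 with KCl, MgCl2, BSA, DTT, tRNA and Tween-20. In it, SNAP-549-labelled MS2 coat protein was titrated in doubling steps from 0.7 or 1.5 nM to 3 µM over chip-bound RNA switches transcribed by stalled E. coli RNA polymerase on Illumina chips. Apparent KD is the per-design median over clusters of curve fits to normalised fluorescence.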
# [1] = input ligand: microRNA oligo, concentration not stated
# [2] = Eterna round: R95, input ligand: FMN 200 uM
# [3] = Eterna round: R95, input ligand: microRNA oligo, concentration not stated
# [4] = Eterna round: R95, input ligand: none
Sequence,apparent KD of MS2 coat protein (input ligand: FMN 200 uM) [µM],apparent KD of MS2 coat protein [1] [µM],apparent KD of MS2 coat protein (input ligand: none) [µM],apparent KD of MS2 coat protein [2] [µM],apparent KD of MS2 coat protein [3] [µM],apparent KD of MS2 coat protein [4] [µM]
"GCGGGCUUGGGAGGAUAUACAUGAGGAUCACCCAUGUGUGUUCGGGCUGGCCGGUUUGGGCGCGUGUAGAAGGCUCGGGUUUGC [less GC, A 14%] (Eterna round: R96, puzzle: Exclusion NG 2)",0.0251,0.0134,0.0161,,,
"GCUAAACAAGGAUAUACAUGAGGAUCACCCAUGUAGGCAUAGGGUGAAGCACGCCUAUGUAGAAGGUGUCCGCA [Eternabot (Original) Solution 34] (Eterna round: R97, puzzle: Exclusion 3)",0.0806,,0.185,,,
"GCUAGAGCAGGAUAUUCAAAACCUCACAUGAGGAUCACCCAUGUGGCCGAAAGGCCGGGAGGAGAAGGGCUCUAGC [Mat - Exclusion 5 - Eli mod - D84] (Eterna round: R96, puzzle: Exclusion 5)",0.0424,0.0143,0.0194,,,
GCUAGAGCAGGAUAUUCAAAACCUCACAUGAGGAUCACCCAUGUGGCCGAAAGGCCGGGAGGAGAAGGGCUCUAGC [Mat - Exclusion 5 - Eli mod - D84] (puzzle: Exclusion 5),,,,0.0416,0.0151,0.0172
"GCUAGAGCAGGAUAUUUAGAUCCUCACAUGAGGAUCACCCAUGUGGUCGAAAGACUAAGAAGAGAAGGGCUCUAGC [Omei Ex5 E21] (Eterna round: R97, puzzle: Exclusion 5)",0.326,,0.944,,,
"GCUAGUCAUGUCAGGAUAUGCAGAUCCUUGGAUCUGCAGAAGGGACAUGAGGAUCACCCAUGUGCCUAACUAGC [Mat - Exclusion 4 - JL Mod - D14] (Eterna round: R97, puzzle: Brourd's mod of Exclusion 4)",0.479,,0.0416,,,
"GCUCGACAUGAGGAUCACCCAUGUCAGGAUAUCUUUGGAGGAGGCUUGCCGAUGAUAGAGAGAAGGGACAGGUA [Eternabot (L2) Solution 70] (Eterna round: R97, puzzle: Exclusion 1)",0.0267,,0.0224,,,
"GCUGACAAGCUGGAGACAGCAGAGACAUGAGGAUCACCCAUGUAGGAUAUCGAUGCGAAAAGCAUCGAGAAGGGCAUAGUCAGC [exng3 v2 a] (Eterna round: R96, puzzle: Exclusion NG 3)",0.0131,0.00971,0.0172,,,
"GCUGCGCGAGGAUAUGCGGUUUGCGCUGUGGCCCGUGGCGUACAUGAGGAUCACCCAUGUAGAAGGCGUGUGGG [Apr-15 SS2-55] (Eterna round: R96, puzzle: Exclusion 2)",0.0276,0.0213,0.0301,,,
GCUGCGCGAGGAUAUGCGGUUUGCGCUGUGGCCCGUGGCGUACAUGAGGAUCACCCAUGUAGAAGGCGUGUGGG [Apr-15 SS2-55] (puzzle: Exclusion 2),,,,,0.0186,
"GCUGGAAGAGGAUAUACAUAAGGUGCGUCAGCACCGGGCCUACAUGAGGAUCACCCAUGUAGAAGGCUUCCAGC [EX2 #78] (Eterna round: R97, puzzle: Exclusion 2)",0.0551,,0.0152,,,
GCUGGACAUGAGGAUCACCCAUGUGAGGAUAUCGGCUGGUACGUGUUGGCUGGCAUCUCGAGAAGGCACAUAGU [Exclusion 1 V63] (puzzle: Exclusion 1),,,,,0.0282,
"GCUGGUCAAGGAUAUACAUGAGGAUCACCCAUGUGAUUAGCAGUCCUCGGACUGCAAUGUAGAAGGUGACCAGC [E3/2-C1] (Eterna round: R97, puzzle: Exclusion 3)",1.41,,0.308,,,
"GCUGGUCGAGGAUAUGCAUUCGUGCUUCGGCACGUAAGGUCACAUGAGGAUCACCCAUGUAGAAGGUGACCAGC [E2/6-B1] (Eterna round: R97, puzzle: Exclusion 2)",0.0239,,0.0178,,,
"GCUGUAGAAGGAUAUGCUUCGACUCACAUGAGGAUCACCCAUGUCUUCGUGCAGUCGUCUGCAGAAGGUCUCCAGU [EX5 C.8] (Eterna round: R97, puzzle: Exclusion 5)",1.82,,0.504,,,
GCUUCCCAUGUGAGGAUAUGUAGGGUUAACCCGAGGCAGAAGGCACAUGAGGAUCACCCAUGUUAAAACUUCUA [Xecera] (puzzle: Brourd's mod of Exclusion 4),,,,,0.0308,
"GCUUGCGAAGUAAGGAUAUCGGUCCGAAAGGACUACGAGAAGGUACAUGAGGAUCACCCAUGUGCGAGCAGAAU [Mod of Zala 24 - Jieux - Brourd's mod of Exclusion 4] (Eterna round: R97, puzzle: Brourd's mod of Exclusion 4)",0.0196,,0.023,,,
GCUUGGCGAGGAUAUACAUGAGGAUCACCCAUGUGAGAGAAGAAAGUGAGGAAGAAAAGUAGAAGGCGCUGAGG [Mat - Exclusion 3 - Mod of Salish D61] (puzzle: Exclusion 3),,,,0.372,0.0564,0.063
"GCUUGUAGAGGAUAUACAAGGGCCCGAGCGGCGAGAGCCGCACAUGAGGAUCACCCAUGUAGAAGGCUACUAUA [JL-ex2-4.21 ViennaUCT mod] (Eterna round: R97, puzzle: Exclusion 2)",0.201,,0.237,,,
"GCUUUUCUUUUCCUUUCUUACAUGAGGAUCACCCAUGUUUCUUGUCGUGCUCGCGUUGUUCGUCUGUCUGUCUGUUG [salish99_TOv1_r3_081] (puzzle: Sensor v3, turn-off variant 1)",,,,0.0374,0.0355,0.0476
"GGAAAACGCUGAGGAUAUGGAAGGAAAGGAAGACCAGAAGGCAGGGUCACACAACAUGAGGAUCACCCAUGUGUGUGUAGCGGA [exng1 ex3] (Eterna round: R96, puzzle: Exclusion NG 1)",0.00975,0.0102,0.0127,,,
"GGAACGACAGGAUAUACAUGAGGAUCACCCAUGUAAAGAAGAGUAAAAUGUGAAAGCGGUAGAAGGGUCAAGAA [AK-MS2ROC-r4-exclusion3-6] (Eterna round: R97, puzzle: Exclusion 3)",0.0423,,0.0439,,,
"GGAAGAAUGAGUAGUCCUCAUUGAAGAGAAUAGUAAGAAACAUGAGGAUCACCCAUGUAAGAACAAGCUUUUGCUCA [JR_Sv3TOV2_Sub003] (puzzle: Sensor v3, turn-off variant 2)",,,,0.227,0.085,0.179
"GGAAGAGAGAUAGGAUAUCAGAGGAAGAUGGUGAGAGAGACAUGAGGAUCACCCAUGUGAAGGAAUGAGAAGGGUCAGAAGGAA [EXNG2 V2 h] (Eterna round: R96, puzzle: Exclusion NG 2)",0.13,0.133,0.101,,,
"GGAAGGCGAGGAUAUACAAUGCCGGAAACGGCAGGCGUGAGACAUGAGGAUCACCCAUGUAGAAGGCGCGGAGA [AK-MS2ROC-r4-exclusion2-15] (Eterna round: R97, puzzle: Exclusion 2)",0.101,,0.105,,,
"GGAAGUAGAAACCGAUCCUACAUGAGGAUCACCCAUGUAGCAAGACGUGCACGCGAAGCUCGUCAGACUACCAGAAU [salish99_TOv1_r3_010] (puzzle: Sensor v3, turn-off variant 1)",,,,0.341,0.268,0.286
"GGACAUAAAGUCAGGAUAUUAAGGCGACCACGCGAUGAGAAGGGACAUGAGGAUCACCCAUGUGAUUCUCAUCA [Ingebive] (Eterna round: R97, puzzle: Brourd's mod of Exclusion 4)",0.0741,,0.0726,,,
"GGACGGAAAGUGAGGAUAUGCUCUACCUCGGUAGAGCAGAAGGCACAUGAGGAUCACCCAUGUGAAAACUGUUC [Omei Ex4B B30] (Eterna round: R97, puzzle: Brourd's mod of Exclusion 4)",0.0279,,0.0152,,,
"GGACGGUUAGUCAGGAUAUGCUCUACCUCGGUAGAGCAGAAGGGACAUGAGGAUCACCCAUGUGAAAACUGUUC [Omei Ex4B B37] (Eterna round: R97, puzzle: Brourd's mod of Exclusion 4)",0.0302,,0.0249,,,
"GGAGAGAGAGGAUAUGGAGGUUGGAACAUGAGGAUCACCCAUGUUAAACCUCAUGACCGACUAGAAGGCUCAGUCC [AK-MS2ROC-r4-exclusion5-9.1] (Eterna round: R97, puzzle: Exclusion 5)",0.0178,,0.0189,,,

# — the supplement of paper PMC9170038
